This passage reports binding result and binding signal results from publication doi:10.1101/2022.02.01.475276.

Holding throughout (experiment): EMSA
For orientation: In EMSA bound probe runs differently from free probe, usually more slowly.

Data set [1] addresses NPAS4;ARNT2 (NPAS4 partner) (mouse;mouse, UniProt Q8BGD7;Q61324 1-329;1-481, |).
The target in data set [2] is SIM1;ARNT2 (SIM1 partner) (;, UniProt P81133;Q9HBZ2 1-348;1-455, |).
The target of data set [3] is HIF2a;ARNT (HIFa partner) (human;human, UniProt Q99814;P27540 1-353;1-503, |).
Sequence of HIF2a;ARNT (HIFa partner) (Q99814 1-353, chain 1 of 2): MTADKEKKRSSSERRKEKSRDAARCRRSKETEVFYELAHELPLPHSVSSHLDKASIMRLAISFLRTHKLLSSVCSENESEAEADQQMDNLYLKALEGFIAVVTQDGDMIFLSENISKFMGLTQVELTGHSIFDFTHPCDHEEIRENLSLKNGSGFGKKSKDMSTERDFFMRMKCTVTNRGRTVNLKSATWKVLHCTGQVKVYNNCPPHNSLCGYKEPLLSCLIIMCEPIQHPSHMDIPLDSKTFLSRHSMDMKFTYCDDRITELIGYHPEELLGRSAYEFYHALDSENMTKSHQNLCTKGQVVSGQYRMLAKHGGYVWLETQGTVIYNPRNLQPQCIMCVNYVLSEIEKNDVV
Sequence of HIF2a;ARNT (HIFa partner) (P27540 1-503, chain 2 of 2): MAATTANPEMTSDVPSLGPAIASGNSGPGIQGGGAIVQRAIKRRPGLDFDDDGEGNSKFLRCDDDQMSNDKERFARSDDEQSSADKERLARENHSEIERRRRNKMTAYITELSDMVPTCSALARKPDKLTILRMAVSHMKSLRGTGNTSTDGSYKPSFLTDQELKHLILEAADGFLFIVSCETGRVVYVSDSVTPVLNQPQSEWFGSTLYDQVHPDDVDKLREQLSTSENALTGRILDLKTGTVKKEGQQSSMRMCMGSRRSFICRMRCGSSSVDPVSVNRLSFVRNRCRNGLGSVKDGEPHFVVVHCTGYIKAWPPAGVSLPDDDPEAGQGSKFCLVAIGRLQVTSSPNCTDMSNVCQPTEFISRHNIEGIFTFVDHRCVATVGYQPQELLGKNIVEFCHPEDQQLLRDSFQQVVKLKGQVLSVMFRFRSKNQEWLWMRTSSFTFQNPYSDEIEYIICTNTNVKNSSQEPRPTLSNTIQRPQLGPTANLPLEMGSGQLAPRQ
Data set [4] has as its target HIF1a;ARNT (HIFa partner) (human?;human, UniProt Q16665;P27540 1-375;1-503, |).

Sequence of NPAS4;ARNT2 (NPAS4 partner) (Q8BGD7 1-329, chain 1 of 2): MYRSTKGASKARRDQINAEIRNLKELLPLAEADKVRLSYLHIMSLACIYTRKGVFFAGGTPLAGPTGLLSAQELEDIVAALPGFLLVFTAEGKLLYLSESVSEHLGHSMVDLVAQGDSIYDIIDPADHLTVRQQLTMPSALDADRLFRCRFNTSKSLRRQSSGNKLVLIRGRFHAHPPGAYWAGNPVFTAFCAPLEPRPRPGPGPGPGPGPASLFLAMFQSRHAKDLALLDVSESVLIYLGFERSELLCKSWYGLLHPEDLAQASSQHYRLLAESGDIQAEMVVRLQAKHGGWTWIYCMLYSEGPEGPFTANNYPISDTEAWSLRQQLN
Sequence of NPAS4;ARNT2 (NPAS4 partner) (Q61324 1-481, chain 2 of 2): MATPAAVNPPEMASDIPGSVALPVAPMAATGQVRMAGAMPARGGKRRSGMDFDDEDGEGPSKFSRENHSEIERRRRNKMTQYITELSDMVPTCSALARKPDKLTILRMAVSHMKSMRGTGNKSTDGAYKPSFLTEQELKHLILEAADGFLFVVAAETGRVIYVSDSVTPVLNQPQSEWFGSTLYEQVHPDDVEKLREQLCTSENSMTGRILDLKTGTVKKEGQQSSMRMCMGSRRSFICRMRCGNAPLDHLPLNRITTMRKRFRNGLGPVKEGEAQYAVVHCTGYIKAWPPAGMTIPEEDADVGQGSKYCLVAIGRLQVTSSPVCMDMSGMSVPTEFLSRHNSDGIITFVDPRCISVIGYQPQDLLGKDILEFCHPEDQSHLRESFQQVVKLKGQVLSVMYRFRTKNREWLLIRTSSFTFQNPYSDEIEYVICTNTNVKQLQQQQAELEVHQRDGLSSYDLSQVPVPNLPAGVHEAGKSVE
Sequence of HIF1a;ARNT (HIFa partner) (P27540 1-503, chain 2 of 2, other chains not shown): as the sequence (P27540 1-503, chain 2 of 2) above
Sequence of SIM1;ARNT2 (SIM1 partner) (P81133 1-348, chain 1 of 2): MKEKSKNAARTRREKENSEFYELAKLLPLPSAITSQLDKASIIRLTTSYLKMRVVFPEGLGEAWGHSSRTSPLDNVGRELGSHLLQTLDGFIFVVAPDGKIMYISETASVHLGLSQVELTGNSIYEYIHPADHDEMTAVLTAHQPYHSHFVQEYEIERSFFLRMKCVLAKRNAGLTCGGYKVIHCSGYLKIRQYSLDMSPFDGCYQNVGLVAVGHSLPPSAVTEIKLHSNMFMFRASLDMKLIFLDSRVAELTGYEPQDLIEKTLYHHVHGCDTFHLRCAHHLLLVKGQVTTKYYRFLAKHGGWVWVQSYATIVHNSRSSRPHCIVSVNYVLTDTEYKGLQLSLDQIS
Sequence of SIM1;ARNT2 (SIM1 partner) (Q9HBZ2 1-455, chain 2 of 2): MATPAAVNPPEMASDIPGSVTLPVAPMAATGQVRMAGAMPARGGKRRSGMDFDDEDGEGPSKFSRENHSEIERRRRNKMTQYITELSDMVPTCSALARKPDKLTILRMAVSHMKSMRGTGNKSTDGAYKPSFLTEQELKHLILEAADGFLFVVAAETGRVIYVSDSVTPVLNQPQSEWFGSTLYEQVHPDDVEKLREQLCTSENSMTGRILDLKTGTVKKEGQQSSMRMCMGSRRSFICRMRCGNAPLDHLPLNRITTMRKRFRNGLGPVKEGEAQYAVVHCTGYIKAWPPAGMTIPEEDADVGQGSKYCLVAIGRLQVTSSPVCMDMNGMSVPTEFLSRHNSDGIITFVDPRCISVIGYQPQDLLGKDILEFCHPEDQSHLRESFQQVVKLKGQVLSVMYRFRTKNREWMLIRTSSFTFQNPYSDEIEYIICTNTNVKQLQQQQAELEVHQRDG

B1: NRE (dsDNA)
DNA 1: AAATGAGTCGTGACCAAAAATT
DNA 2: AATTTTTGGTCACGACTCATTT
Regarding B1, in data set [1], the binding result is “binds”.

B2: SRE (dsDNA)
DNA 1: AAAAGGTACGTGACCAAAAAGA
DNA 2: TCTTTTTGGTCACGTACCTTTT
For B2, the binding result in data set [2] is listed as “binds”.

B3: HRE (C/C) (dsDNA)
DNA 1: AGGCTGCGTACGTGCGGGTCGT
DNA 2: ACGACCCGCACGTACGCAGCCT
For the molecule B3, the binding signal is ~1 reference (HIF1a/ARNT about 2-fold higher) in data set [3] and ~2 fold higher affinity than HIF2a/ARNT in data set [4].
